Numbering of substitutions follows the chain as printed. In names and notes the source's numbering stands.

For series [1], the target named is EGFP-Nkrp1a_C74S (mouse (C57BL/6)) (UniProt P27811). The series can be described thus: FRET or BRET; homo-FRET (steady-state fluorescence anisotropy of EGFP, time-domain, TCSPC) at the plasma membrane of living transfected Jurkat cells on PLL-coated slides, 37 °C; semi-quantitative, calibrated by monomeric LAT and dimeric CD8α. (In BRET a luciferase serves as donor, and the signal depends on an acceptor being close.)

Series [2] concerns the target EGFP-Nkrp1c2 (mouse (C57BL/6)). The description is as above.
Series [3] deals with EGFP-Nkrp1a_C74,88S (mouse (C57BL/6)) (UniProt P27811). Described as above.
For series [4], the target named is EGFP-Nkrp1a_C88S (mouse (C57BL/6)) (UniProt P27811). Described as above.
Series [5] concerns the molecule itself. The series is described as above.
Series [6] deals with the molecule itself. Briefly: SEC + other: SDS-PAGE under reducing and non-reducing conditions; refolded ectodomains on calibrated Superdex 75 (Nkrp1a^ECTO: 150 mM NaCl, 15 mM Tris-HCl pH 7.5; the others: 10 mM HEPES pH 7.4, 100 mM NaCl); main peaks analysed on 15% SDS-PAGE.

In series [1], “EGFP-Nkrp1a_C74S (from UniProt P27811 1-227) (receptor)” showed a steady-state anisotropy, mean of 0.273 and a steady-state anisotropy, median of 0.272. For EGFP-Nkrp1c2 (receptor), in series [2], the steady-state anisotropy, mean turned out to be 0.248 and the steady-state anisotropy, median stood at 0.249.

In series [3], “EGFP-Nkrp1a_C74,88S (from UniProt P27811 1-227) (receptor)” had a steady-state anisotropy, mean of 0.285 and a steady-state anisotropy, median of 0.283. For the molecule “EGFP-Nkrp1a_C88S (from UniProt P27811 1-227) (receptor)”, in series [4], the steady-state anisotropy, mean was 0.267 and the steady-state anisotropy, median is 0.266.

B1: EGFP-Nkrp1c1 (receptor, mouse (C57BL/6), UniProt P27814 1-223, looked up)
chain: MDTASIYLGLKPPRTLGAWHESPPSLPPDACRCPRSHRLALKLSCAGLILLVLTLIGMSVLVRVLVQKPSREKCCVFIQENLNKTTDCSVNLECPQDWLLHRDKCFHVSQVSNTWEEGQADCGRKGATLLLIQDQEELRFLLDSIKEKYNSFWIGLRFTLPDMNWKWINGTTFNSDVLKITGVTENGSCASILGDKVTPESCASDNRWICQKELNHETPSNDS
notes: last residue S223; Vector pXJ41; also called c1 isoform; source: Jurkat, transiently transfected, living cells; COS-7, transiently transfected, in lysate; not shown: EGFP (with spacer GSGGGS), N-terminal, kept
On to B1, for which, in series [5], the “steady-state anisotropy, mean” value was 0.244 and the “steady-state anisotropy, median” value came out at 0.242.

B2: EGFP-Nkrp1f (receptor, mouse (C57BL/6), UniProt Q8VD98 1-217, looked up)
chain: MDTSKVHGNVKPFRCPGYKQASSPSFSPDACRCPHWHHLALKSGCAGLILLLLSLIGLSVLVRFLVQKPPIEKCSVAAQENRTELTGRSAILECPRYWHPHWNKCLFVSQISRPWAEGRDACSMEDAILLLIENKEELRFVQNLIKGKEQLFFIGLKYVQKEKIWKWIDGSILNPNLLRITGKDKENSCAIISHTEVFSDSCSSDNHWICQKTLIHV
notes: last residue V217; Vector pXJ41; also called f isoform; source: Jurkat, transiently transfected, living cells; COS-7, transiently transfected, in lysate; not shown: EGFP (with spacer GSGGGS), N-terminal, kept
As to B2, in series [5], the “steady-state anisotropy, mean” value was 0.25 and the “steady-state anisotropy, median” value stood at 0.25.

B3: EGFP-Nkrp1f_C74S (receptor, mouse (C57BL/6), UniProt Q8VD98 1-217, looked up)
chain: B2 chain with C74S
notes: Two extra C-terminal residues (Thr-Gly) possible as for m8 (surmise from the primer); also called C74S mutant of Nkrp1f; source: Jurkat, transiently transfected, living cells; COS-7, transiently transfected, in lysate; not shown: EGFP (with spacer GSGGGS), N-terminal, kept
B3: in series [5], the “steady-state anisotropy, mean” value is 0.281 and the “steady-state anisotropy, median” value is 0.281.

B4: Nkrp1f^ECTO (domain or fragment, mouse (C57BL/6), UniProt Q8VD98 67-217, looked up)
chain: QKPPIEKCSVAAQENRTELTGRSAILECPRYWHPHWNKCLFVSQISRPWAEGRDACSMEDAILLLIENKEELRFVQNLIKGKEQLFFIGLKYVQKEKIWKWIDGSILNPNLLRITGKDKENSCAIISHTEVFSDSCSSDNHWICQKTLIHV
notes: mouse (C57BL/6) Nkrp1f ectodomain with stalk, residues Q67-V217; Cloned into pET-30a(+) between NdeI and HindIII; an initiator Met may precede Q67 (surmise); The monomeric form bears cysteamine on C74; the dimeric form has a C74-C74 disulfide; also called recombinant ectodomain of Nkrp1f
As a reminder, the stoichiometry N is a count of units in the complex or per binding partner. With B4, the “stoichiometry N” value in series [6] came to 2.

B5: EGFP-Nkrp1a (receptor, mouse (C57BL/6), UniProt P27811 1-227, looked up)
chain: MDTARVYFGLKPPRTPGAWHESPPSLPPDACRCPRSHRLALKLSCAGLILLVVTLIGMSVLVRVLIQKPSIEKCYVLIQENLNKTTDCSAKLECPQDWLSHRDKCFQVSHVSNTWEEGLVDCDGKGATLMLIQDQEELRFLLDSIKEKYNSFWIGLRYTLPDMNWKWINGSTLNSDVLKITGDTENDSCAAISGDKVTFESCNSDNRWICQKELYHETLSNYVGYGH
notes: last residue H227; Vector pXJ41; also called Nkrp1a1; a1 isoform; source: Jurkat, transiently transfected, living cells; COS-7, transiently transfected, in lysate; not shown: EGFP (with spacer GSGGGS), N-terminal, kept
Take B5: in series [5], the “steady-state anisotropy, mean” value is 0.269 and the “steady-state anisotropy, median” value was found to be 0.271.

B6: Nkrp1c1^ECTO (domain or fragment, mouse (C57BL/6), UniProt P27814 70-223, looked up)
chain: SREKCCVFIQENLNKTTDCSVNLECPQDWLLHRDKCFHVSQVSNTWEEGQADCGRKGATLLLIQDQEELRFLLDSIKEKYNSFWIGLRFTLPDMNWKWINGTTFNSDVLKITGVTENGSCASILGDKVTPESCASDNRWICQKELNHETPSNDS
notes: mouse (C57BL/6) Nkrp1c isoform c1 ectodomain with stalk, residues S70-S223; Cloned into pET-30a(+) between NdeI and HindIII; an initiator Met may precede S70 (surmise); The monomeric form bears cysteamine on C88; the dimeric form has a C88-C88 disulfide; also called Nkrpc1^ECTO; recombinant ectodomain of Nkrp1c1
For B6, the “stoichiometry N” value in series [6] was 2.

Source of the values: paper PMC6515139, “Oligomeric Architecture of Mouse Activating Nkrp1 Receptors on Living Cells” (International Journal of Molecular Sciences, 2019).
